In patent publication US20030068675, “Position dependent recognition of GNN nucleotide triplets by zinc fingers” (published 2003):

Experiments:
Assay in all cases: EMSA
Details in all cases: tags: MBP fusion
[1] = target: ZFP SBS#1056 (synthetic)
Method in brief: (§1)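 Purified ZFP was titrated against labeled double-stranded target (1 nM or lower, at least 10-fold below expected Kd) carrying the natural binding site with flanks. Binding buffer was 10 mM Tris pH 7.5, 100 mM KCl, 1 mM MgCl2, 0.1 mM ZnCl2, 5 mM DTT, 10% glycerol, 0.02% BSA, with equilibration for at least 45 min. Bound and free target were separated on a 10% polyacrylamide gel.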

[2] = target: ZFP SBS#1057 (synthetic)
Method in brief: as §1

[3] = target: T1, ZFP SBS#1055 (synthetic)
T1 chain: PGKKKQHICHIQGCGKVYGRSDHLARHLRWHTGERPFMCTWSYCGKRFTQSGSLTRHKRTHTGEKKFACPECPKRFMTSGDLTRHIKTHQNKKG
Method in brief: as §1

[4] = target: ZFP SBS#1054 (synthetic)
Method in brief: as §1

[5] = target: T2, ZFP SBS#1052 (synthetic)
T2 chain: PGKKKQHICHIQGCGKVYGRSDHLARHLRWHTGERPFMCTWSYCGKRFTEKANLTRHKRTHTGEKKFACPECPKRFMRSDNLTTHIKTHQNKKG
Method in brief: as §1

[6] = target: T3, ZFP SBS#1053 (synthetic)
T3 chain: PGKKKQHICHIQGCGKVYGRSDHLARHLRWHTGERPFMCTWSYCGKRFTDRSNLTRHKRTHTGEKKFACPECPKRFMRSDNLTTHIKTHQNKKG
Method in brief: as §1

[7] = target: T4, ZFP SBS#1064 (synthetic)
T4 chain: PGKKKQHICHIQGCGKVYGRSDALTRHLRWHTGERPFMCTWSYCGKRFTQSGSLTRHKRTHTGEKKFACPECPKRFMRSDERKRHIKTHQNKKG
Method in brief: as §1

[8] = target: T5, ZFP SBS#1051 (synthetic)
T5 chain: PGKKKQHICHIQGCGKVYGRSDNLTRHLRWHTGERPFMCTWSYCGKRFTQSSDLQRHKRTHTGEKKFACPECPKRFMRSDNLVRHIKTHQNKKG
Method in brief: as §1

[9] = target: T6, ZFP SBS#1041 (synthetic)
T6 chain: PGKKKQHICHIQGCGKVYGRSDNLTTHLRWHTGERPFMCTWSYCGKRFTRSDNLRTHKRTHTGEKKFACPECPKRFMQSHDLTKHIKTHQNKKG
Method in brief: as §1

[10] = target: T7, ZFP SBS#919 (synthetic)
T7 chain: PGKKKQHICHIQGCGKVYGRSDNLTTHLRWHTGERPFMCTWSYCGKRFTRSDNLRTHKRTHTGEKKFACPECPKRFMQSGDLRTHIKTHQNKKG
Method in brief: as §1

[11] = target: T8, ZFP SBS#1058 (synthetic)
T8 chain: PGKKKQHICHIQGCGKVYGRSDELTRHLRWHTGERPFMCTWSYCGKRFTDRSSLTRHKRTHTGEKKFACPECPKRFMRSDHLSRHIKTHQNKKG
Method in brief: as §1

[12] = target: T9, ZFP SBS#1059 (synthetic)
T9 chain: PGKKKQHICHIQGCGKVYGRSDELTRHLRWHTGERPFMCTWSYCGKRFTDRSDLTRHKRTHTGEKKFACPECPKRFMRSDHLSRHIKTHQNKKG
Method in brief: as §1

[13] = target: T10, ZFP SBS#1063 (synthetic, UniProt P08047)
T10 chain: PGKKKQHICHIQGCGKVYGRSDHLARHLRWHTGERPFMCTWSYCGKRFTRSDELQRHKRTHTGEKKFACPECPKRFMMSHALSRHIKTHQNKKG
Method in brief: as §1

[14] = target: T11, ZFP SBS#1062 (synthetic)
T11 chain: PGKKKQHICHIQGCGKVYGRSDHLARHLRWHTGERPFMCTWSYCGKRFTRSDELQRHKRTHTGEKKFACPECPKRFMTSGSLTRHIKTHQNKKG
Method in brief: as §1

[15] = target: ZFP SBS#1061 (synthetic)
Method in brief: as §1

[16] = target: ZFP SBS#1040 (synthetic, UniProt P08047)
Method in brief: as §1

[17] = target: ZFP SBS#942 (synthetic, UniProt P08047)
Method in brief: as §1

[18] = target: T12, ZFP SBS#993 (synthetic, UniProt P08047)
T12 chain: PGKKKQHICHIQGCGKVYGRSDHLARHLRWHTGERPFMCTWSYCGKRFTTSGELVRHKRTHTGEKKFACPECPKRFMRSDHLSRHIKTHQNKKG
Method in brief: as §1

[19] = target: T13, ZFP SBS#943 (synthetic)
T13 chain: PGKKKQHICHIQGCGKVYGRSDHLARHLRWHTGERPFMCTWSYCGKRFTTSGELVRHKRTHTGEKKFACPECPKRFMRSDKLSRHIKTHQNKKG
Method in brief: as §1

[20] = target: T14, ZFP SBS#1039 (synthetic)
T14 chain: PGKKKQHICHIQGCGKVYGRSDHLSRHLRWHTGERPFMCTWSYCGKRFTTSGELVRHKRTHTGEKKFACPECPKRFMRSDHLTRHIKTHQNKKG
Method in brief: as §1

[21] = target: T15, ZFP SBS#941 (synthetic)
T15 chain: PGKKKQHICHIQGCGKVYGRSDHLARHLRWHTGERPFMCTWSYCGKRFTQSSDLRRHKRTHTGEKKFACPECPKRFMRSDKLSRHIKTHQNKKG
Method in brief: as §1

[22] = target: ZFP SBS#944 (synthetic, UniProt P08047)
Method in brief: as §1

[23] = target: T16, ZFP SBS#1067 (synthetic)
T16 chain: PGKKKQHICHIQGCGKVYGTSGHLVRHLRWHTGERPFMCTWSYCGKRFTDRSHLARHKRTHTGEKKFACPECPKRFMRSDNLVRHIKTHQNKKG
Method in brief: as §1

[24] = target: T17, ZFP SBS#1066 (synthetic)
T17 chain: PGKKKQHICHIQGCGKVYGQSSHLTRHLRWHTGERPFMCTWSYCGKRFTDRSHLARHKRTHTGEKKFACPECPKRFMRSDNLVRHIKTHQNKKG
Method in brief: as §1

[25] = target: T18, ZFP SBS#1060 (synthetic)
T18 chain: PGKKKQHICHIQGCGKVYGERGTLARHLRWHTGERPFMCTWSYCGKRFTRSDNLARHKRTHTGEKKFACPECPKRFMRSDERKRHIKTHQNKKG
Method in brief: as §1

[26] = target: ZFP SBS#441 (synthetic)
Method in brief: as §1

[27] = target: ZFP SBS#453 (synthetic)
Method in brief: as §1

[28] = target: ZFP SBS#1046 (synthetic)
Method in brief: as §1

[29] = target: ZFP SBS#1045 (synthetic)
Method in brief: as §1

[30] = target: T19, ZFP SBS#1047 (synthetic)
T19 chain: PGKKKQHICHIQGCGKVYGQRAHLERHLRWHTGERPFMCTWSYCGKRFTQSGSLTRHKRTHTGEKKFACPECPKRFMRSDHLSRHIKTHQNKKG
Method in brief: as §1

[31] = target: T20, ZFP SBS#1048 (synthetic)
T20 chain: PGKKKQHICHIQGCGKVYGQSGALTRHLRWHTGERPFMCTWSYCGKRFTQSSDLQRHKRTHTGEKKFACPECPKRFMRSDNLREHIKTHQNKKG
Method in brief: as §1

[32] = target: T21, ZFP SBS#1049 (synthetic)
T21 chain: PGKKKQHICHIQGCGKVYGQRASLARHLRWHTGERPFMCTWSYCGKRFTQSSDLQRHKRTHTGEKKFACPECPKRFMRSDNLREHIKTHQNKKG
Method in brief: as §1

[33] = target: ZFP SBS#1050 (synthetic)
Method in brief: as §1

[34] = target: T22, ZFP SBS#1044 (synthetic)
T22 chain: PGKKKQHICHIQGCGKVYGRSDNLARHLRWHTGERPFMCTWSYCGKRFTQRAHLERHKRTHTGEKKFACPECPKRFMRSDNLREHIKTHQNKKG
Method in brief: as §1

[35] = target: ZFP SBS#1043 (synthetic)
Method in brief: as §1

[36] = target: T23, ZFP SBS#461 (synthetic)
T23 chain: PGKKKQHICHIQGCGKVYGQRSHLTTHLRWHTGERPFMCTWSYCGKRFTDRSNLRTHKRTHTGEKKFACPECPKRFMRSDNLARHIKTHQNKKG
Method in brief: as §1

[37] = target: T24, ZFP SBS#1065 (synthetic)
T24 chain: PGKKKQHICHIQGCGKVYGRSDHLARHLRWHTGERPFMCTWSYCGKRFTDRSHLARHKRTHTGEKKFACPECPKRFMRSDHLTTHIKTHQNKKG
Method in brief: as §1

ZFP SBS#1061 (synthetic), sequence (chain, as listed by the source): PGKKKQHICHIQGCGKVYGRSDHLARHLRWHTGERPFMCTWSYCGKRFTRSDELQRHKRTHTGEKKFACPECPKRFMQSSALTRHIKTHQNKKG
ZFP SBS#1043 (synthetic), sequence (chain, as listed by the source): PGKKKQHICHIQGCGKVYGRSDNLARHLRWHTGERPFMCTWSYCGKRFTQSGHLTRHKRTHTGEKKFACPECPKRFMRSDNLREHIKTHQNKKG
ZFP SBS#944, sequence (P08047 other isoform, or with tags, fused parts or gaps): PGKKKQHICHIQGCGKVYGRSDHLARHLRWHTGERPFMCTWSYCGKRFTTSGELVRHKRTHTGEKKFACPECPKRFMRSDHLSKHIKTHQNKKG
ZFP SBS#441 (synthetic), sequence (chain, as listed by the source): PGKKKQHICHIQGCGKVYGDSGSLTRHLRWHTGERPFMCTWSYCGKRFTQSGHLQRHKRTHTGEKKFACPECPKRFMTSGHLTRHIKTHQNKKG
ZFP SBS#1050 (synthetic), sequence (chain, as listed by the source): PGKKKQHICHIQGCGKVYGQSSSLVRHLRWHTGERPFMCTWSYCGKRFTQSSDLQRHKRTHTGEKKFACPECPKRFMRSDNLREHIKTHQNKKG
ZFP SBS#1056 (synthetic), sequence (chain, as listed by the source): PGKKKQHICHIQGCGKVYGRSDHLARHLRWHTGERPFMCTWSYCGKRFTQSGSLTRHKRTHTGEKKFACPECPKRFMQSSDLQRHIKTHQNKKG
ZFP SBS#942, sequence (P08047 other isoform, or with tags, fused parts or gaps): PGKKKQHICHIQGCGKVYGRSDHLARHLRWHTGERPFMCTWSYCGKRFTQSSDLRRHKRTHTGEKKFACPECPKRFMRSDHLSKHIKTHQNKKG
ZFP SBS#1045 (synthetic), sequence (chain, as listed by the source): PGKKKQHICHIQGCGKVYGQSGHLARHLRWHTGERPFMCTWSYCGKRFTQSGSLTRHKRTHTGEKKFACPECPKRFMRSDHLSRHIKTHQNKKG
ZFP SBS#1040, sequence (P08047 other isoform, or with tags, fused parts or gaps): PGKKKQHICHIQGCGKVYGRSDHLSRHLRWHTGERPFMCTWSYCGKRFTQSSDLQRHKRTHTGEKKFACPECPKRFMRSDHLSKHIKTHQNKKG
ZFP SBS#453 (synthetic), sequence (chain, as listed by the source): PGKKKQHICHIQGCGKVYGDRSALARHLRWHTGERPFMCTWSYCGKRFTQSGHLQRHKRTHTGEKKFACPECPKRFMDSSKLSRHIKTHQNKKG
ZFP SBS#1057 (synthetic), sequence (chain, as listed by the source): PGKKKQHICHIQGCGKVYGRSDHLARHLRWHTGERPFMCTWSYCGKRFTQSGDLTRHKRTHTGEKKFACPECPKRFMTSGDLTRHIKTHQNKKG

B1: GCTGCAGGG (dsDNA)
DNA 1: GCTGCAGGG
DNA 2: CCCTGCAGC
B1 showed a Kd [1] of 0.045 nM, a Kd [2] of 0.483 nM and a Kd [3] of 18.7 nM. For the same binder, the Kd [4] was 0.033 nM.

B2: TAGGACGGG (dsDNA)
DNA 1: TAGGACGGG
DNA 2: CCCGTCCTA
For B2, the Kd [5] was 0.28 nM and the Kd [6] was 0.025 nM.

B3: GCGGCAGTG (dsDNA)
DNA 1: GCGGCAGTG
DNA 2: CACTGCCGC
Work on B3 yielded a Kd [7] of 0.453 nM.

B4: GAGGCTGAG (dsDNA)
DNA 1: GAGGCTGAG
DNA 2: CTCAGCCTC
B4 was tested, and the Kd [8] was 0.02 nM.

B5: TCATAGTAG (dsDNA)
DNA 1: TCATAGTAG
DNA 2: CTACTATGA
With B5 the Kd [9] was 2.06 nM and the Kd [10] was 250 nM.

B6: GGGGCCGCG (dsDNA)
DNA 1: GGGGCCGCG
DNA 2: CGCGGCCCC
For B6, the Kd [11] was 6.28 nM and the Kd [12] was 0.152 nM.

B7: GTTGCGGGG (dsDNA)
DNA 1: GTTGCGGGG
DNA 2: CCCCGCAAC
In the case of B7, the Kd [13] is reported as 0.96 nM, the Kd [14] is reported as 0.068 nM and the Kd [15] is reported as 0.165 nM.

B8: GGGGCTGGG (dsDNA)
DNA 1: GGGGCTGGG
DNA 2: CCCAGCCCC
With B8 the Kd [16] was 0.05 nM, the Kd [17] was 0.13 nM and the Kd [18] was 3.1 nM. For the same binder, the Kd [19] was 0.067 nM, the Kd [20] was 1.37 nM and the Kd [21] was 0.077 nM. The Kd [22] was 0.027 nM.

B9: GAGGGCGGT (dsDNA)
DNA 1: GAGGGCGGT
DNA 2: ACCGCCCTC
B9 showed a Kd [23] of 1.37 nM and a Kd [24] of 0.15 nM.

B10: GCGGAGGCC (dsDNA)
DNA 1: GCGGAGGCC
DNA 2: GGCCTCCGC
With B10 the Kd [25] was 0.69 nM.

B11: GGTGGAGTCA (dsDNA)
DNA 1: GGTGGAGTCA
DNA 2: TGACTCCACC
In the case of B11, the Kd [26] is reported as 250 nM and the Kd [27] is reported as 150 nM.

B12: GGGGCAGGA (dsDNA)
DNA 1: GGGGCAGGA
DNA 2: TCCTGCCCC
Binder B12 has a Kd [28] of 0.09 nM, a Kd [29] of 0.15 nM and a Kd [30] of 24.7 nM.

B13: CAGGCTGTA (dsDNA)
DNA 1: CAGGCTGTA
DNA 2: TACAGCCTG
Binder B13 has a Kd [31] of 1.39 nM, a Kd [32] of 55.6 nM and a Kd [33] of 0.125 nM.

B14: CAGGGAGAG (dsDNA)
DNA 1: CAGGGAGAG
DNA 2: CTCTCCCTG
Work on B14 yielded a Kd [34] of 1.07 nM and a Kd [35] of 0.16 nM.

B15: GAGTACTGTA (dsDNA)
DNA 1: GAGTACTGTA
DNA 2: TACAGTACTC
With B15 the Kd [36] was 120 nM.

B16: TGGGGCGGG (dsDNA)
DNA 1: TGGGGCGGG
DNA 2: CCCGCCCCA
B16 showed a Kd [37] of 1.37 nM.
